Results reported in patent publication US20240010684A1, “MASP INHIBITORY COMPOUNDS AND USES THEREOF” (BAYER AKTIENGESELLSCHAFT, priority 2020, published 2024).
Bridges are numbered along the chain shown (N, C = ends). [ ]: non-standard residue; d: D form. Oic = O=C(O)[C@@H]1C[C@@H]2CCCC[C@@H]2N1; Trx = NC[C@H]1CC[C@H](C(=O)O)CC1; tBuAla = CC(C)(C)C[C@H](N)C(=O)O; Pen = CC(C)(S)[C@H](N)C(=O)O; NMeC = CN[C@@H](CS)C(=O)O; Abu = CC[C@H](N)C(=O)O; Ahx = NCCCCCC(=O)O; GABA = NCCCC(=O)O; Sar = CNCC(=O)O

B1: Example 69: G**-(TXA)-GIC+SRS-((tBu)A)-PPI-((N-Me)C)+-IPD++-NH2 (peptide)
peptide: G[Trx]GICSRS[tBuAla]PPI[NMeC]IPD-NH2
modifications: disulfide 5-13; lactam N-16; also: TFA salt
B2: Example 76: (Ahx)**-((N-Me)G)-GIC+SRSLP-(Oic)-I-(Pen)+-IPE++-NH2 (peptide)
peptide: [Ahx][Sar]GICSRSLP[Oic]I[Pen]IPE-NH2
modifications: disulfide 5-13; lactam N-16; also: TFA salt
B3: Example 30: (Ahx)**-GIC+SRS-((tBu)A)-PPI-((N-Me)C)+-IPD** (peptide)
peptide: cyclo([Ahx]GICSRS[tBuAla]PPI[NMeC]IPD)
modifications: disulfide 4-12; also: TFA salt
B4: Example 31: A**GAIC+SRS-((tBu)A)-PPI-((N-Me)C)+-IPD** (peptide)
peptide: cyclo(AGAICSRS[tBuAla]PPI[NMeC]IPD)
modifications: disulfide 5-13; also: TFA salt
B5: Example 33: (Ahx)**-(Abu)-IC+SRS-((tBu)A)-PPI-((N-Me)C)+-IPD** (peptide)
peptide: cyclo([Ahx][Abu]ICSRS[tBuAla]PPI[NMeC]IPD)
modifications: disulfide 4-12; also: TFA salt
B6: Example 36: (Gamma-Abu)**-IC+SRS-((tBu)A)-PPI-((N-Me)C)+-IPD** (peptide)
peptide: cyclo([GABA]ICSRS[tBuAla]PPI[NMeC]IPD)
modifications: disulfide 3-11; also: TFA salt
B7: Example 40: (Ahx)**-GIC+SRS-((tBu)A)-PPI-((N-Me)C)+-IPD++-NH2 (peptide)
peptide: [Ahx]GICSRS[tBuAla]PPI[NMeC]IPD-NH2
modifications: disulfide 4-12; lactam N-15; also: TFA salt
B8: Bicyclic SFTI-1: G**RC+TKSIPPIC+FPD** (peptide)
peptide: GRCTKSIPPICFPD
modifications: not checked

Target: recombinant human MASP2 (amino acids 297-686, C-terminal His Tag) (human) (UniProt O00187)
Assay: cell-based or functional assay

Chain of recombinant human MASP2 (amino acids 297-686, C-terminal His Tag) (human) (O00187 other isoform, or with tags, fused parts or gaps limits assumed): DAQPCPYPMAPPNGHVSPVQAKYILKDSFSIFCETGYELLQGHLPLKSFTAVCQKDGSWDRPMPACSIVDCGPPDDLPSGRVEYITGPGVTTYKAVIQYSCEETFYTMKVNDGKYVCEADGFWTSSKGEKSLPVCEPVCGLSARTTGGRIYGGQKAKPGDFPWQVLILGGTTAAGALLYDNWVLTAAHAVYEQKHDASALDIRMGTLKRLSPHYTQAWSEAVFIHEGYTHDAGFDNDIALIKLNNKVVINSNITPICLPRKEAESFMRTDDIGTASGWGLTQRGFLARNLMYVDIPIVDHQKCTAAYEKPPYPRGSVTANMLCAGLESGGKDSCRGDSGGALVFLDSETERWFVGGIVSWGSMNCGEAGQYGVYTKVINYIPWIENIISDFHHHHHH

| Binder | human MASP2 IC50 |
| --- | --- |
| B1 | 190 nM |
| B2 | 180 nM |
| B3 | 65 nM |
| B4 | 130 nM |
| B5 | 62 nM |
| B6 | 110 nM |
| B7 | 90 nM |

Target: T1, recombinant human MASP1 (amino acids 297-699, C-terminal His Tag) (human) (UniProt P48740)
T1 sequence: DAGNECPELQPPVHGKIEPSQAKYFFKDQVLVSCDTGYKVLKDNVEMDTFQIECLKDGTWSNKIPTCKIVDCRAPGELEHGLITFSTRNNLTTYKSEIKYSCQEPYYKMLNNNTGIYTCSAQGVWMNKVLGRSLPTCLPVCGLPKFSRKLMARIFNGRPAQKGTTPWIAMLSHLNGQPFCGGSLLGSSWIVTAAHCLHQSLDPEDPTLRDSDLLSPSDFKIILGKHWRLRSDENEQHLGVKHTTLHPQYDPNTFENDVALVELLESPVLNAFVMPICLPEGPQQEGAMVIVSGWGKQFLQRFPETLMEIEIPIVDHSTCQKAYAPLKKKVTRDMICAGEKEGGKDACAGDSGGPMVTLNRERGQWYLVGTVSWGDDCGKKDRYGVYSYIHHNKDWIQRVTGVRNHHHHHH
Assay: cell-based or functional assay

| Binder | human MASP1 IC50 |
| --- | --- |
| B1 | 20 nM |
| B2 | 9.7 nM |
| B3 | 16 nM |
| B4 | 16 nM |
| B5 | 28 nM |
| B6 | 8.7 nM |
| B7 | 7.1 nM |

Target: recombinant human MASP2 (amino acids 297-686, C-terminal His Tag) (human), O00187
Assay: cell-based or functional assay

Chain of recombinant human MASP2 (amino acids 297-686, C-terminal His Tag) (human), O00187 (O00187 other isoform, or with tags, fused parts or gaps limits assumed): as the sequence (O00187 other isoform, or with tags, fused parts or gaps limits assumed) above

| Binder | human MASP2 IC50 |
| --- | --- |
| B8 | > 3000 nM |

Target: T2, recombinant human MASP1 (amino acids 297-699, C-terminal His Tag) (human), P48740
T2 chain: T1 sequence
Assay: cell-based or functional assay

| Binder | human MASP1 IC50 |
| --- | --- |
| B8 | > 3000 nM |

Target: T3, recombinant rat MASP1 (amino acids 302-704, C-terminal His Tag) (rat), Q8CHN8
T3 chain: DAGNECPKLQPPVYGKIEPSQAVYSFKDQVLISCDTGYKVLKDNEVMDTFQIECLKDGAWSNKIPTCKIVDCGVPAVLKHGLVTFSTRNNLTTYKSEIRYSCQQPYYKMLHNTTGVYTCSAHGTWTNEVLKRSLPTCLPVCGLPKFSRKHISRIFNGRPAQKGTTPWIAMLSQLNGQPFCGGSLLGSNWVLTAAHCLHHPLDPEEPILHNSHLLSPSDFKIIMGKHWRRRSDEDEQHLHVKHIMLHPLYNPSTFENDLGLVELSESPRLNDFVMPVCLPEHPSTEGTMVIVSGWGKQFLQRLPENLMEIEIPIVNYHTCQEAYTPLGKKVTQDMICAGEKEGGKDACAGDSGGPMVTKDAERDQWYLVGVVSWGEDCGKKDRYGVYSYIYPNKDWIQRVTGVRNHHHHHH
Assay: cell-based or functional assay

| Binder | rat MASP1 IC50 |
| --- | --- |
| B8 | 1000 nM |

Target: recombinant rat MASP2 (amino acids 296-685, C-terminal His Tag) (rat), Q9JJS8
Assay: cell-based or functional assay

Chain of recombinant rat MASP2 (amino acids 296-685, C-terminal His Tag) (rat), Q9JJS8 (Q9JJS8 other isoform, or with tags, fused parts or gaps limits assumed): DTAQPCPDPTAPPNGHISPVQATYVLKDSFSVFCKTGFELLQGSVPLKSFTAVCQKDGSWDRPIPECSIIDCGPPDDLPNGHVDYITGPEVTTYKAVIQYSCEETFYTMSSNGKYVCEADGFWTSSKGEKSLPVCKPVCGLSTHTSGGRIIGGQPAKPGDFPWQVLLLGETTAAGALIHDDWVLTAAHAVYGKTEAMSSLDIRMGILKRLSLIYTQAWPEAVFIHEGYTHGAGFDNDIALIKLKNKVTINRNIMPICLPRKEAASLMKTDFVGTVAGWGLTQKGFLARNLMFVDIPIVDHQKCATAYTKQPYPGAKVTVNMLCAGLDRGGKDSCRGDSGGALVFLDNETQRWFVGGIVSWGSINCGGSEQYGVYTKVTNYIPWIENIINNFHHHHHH

| Binder | rat MASP2 IC50 |
| --- | --- |
| B8 | 1000 nM |
